We go through eight molecules from US10442866 (BEIJING MABWORKS BIOTECH, dated 2019).

One may read the Kd as the concentration at which binding is half-saturated. For orientation: koff means the first-order rate constant of dissociation. As usually defined, the kon is the second-order rate constant of association. The EC50 (read off the curve) is the concentration that produces a half-maximal response. A word on the EC50: it is the concentration needed to bring the measured effect to its halfway point.

Like-named read-outs stand apart in the source and are kept apart here.

The target in experiment [1] is T1, recombinant human OX40-his (Sino Biological, Cat#:10481-H03H) (human, UniProt P43489 29-214).
T1 construct: bought protein; also called hOX40-his; not shown: His tag
T1 sequence: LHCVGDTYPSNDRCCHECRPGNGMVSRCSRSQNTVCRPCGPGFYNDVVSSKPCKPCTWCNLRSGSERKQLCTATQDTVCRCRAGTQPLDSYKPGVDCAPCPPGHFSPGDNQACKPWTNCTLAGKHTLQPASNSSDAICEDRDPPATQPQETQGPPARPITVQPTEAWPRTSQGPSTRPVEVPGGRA
Put plainly: SPR Biacore 8K, OX40-His on chip, antibody injected. On the procedure: SPR assays were used to determine the binding affinity of the chimetic or humanized anti-OX40 antibodies to human OX40 with the BIAcore™ 8K instrument (GE Life Sciences). Briefly, 100-200 response units (RU) of human OX40-His protein (Sino Biological, CN, Cat#:10481-H03H, Lot no.: MA08MA3003) were coupled to CM5 biosensor chips (Cat#: BR-1005-30, GE Life Sciences), followed by blocking of un-reacted groups with 1M ethanolamine. Serially diluted antibodies at concentrations ranging from 0.3 µM to 10 µM were injected into the SPR running buffer (HBS-EP buffer, pH7.4, GE Life Sciences; US; Cat#:BR-1006-69) at 30 µL/minute. The binding capacitity was calculated with the RUs of blank controls subtracted. The association rate (k_a) and dissociation rate (k_d) were calculated using the one-to-one Langmuir binding model (BIA Evaluation Software, GE Life Sciences). The equilibrium dissociation constant K_D was calculated as the k_d/k_a ratio.
On the technique in general: SPR reads the build-up and loss of mass on a sensor chip optically.

In experiment [2] the target is T2, rhesus OX40 expressed on HEK293A cells (rhesus, UniProt P43489 29-277 (human entry)).
T2 construct: also called HEK293A/rhOX40; HEK293A/rhesusOX40 cells
T2 chain: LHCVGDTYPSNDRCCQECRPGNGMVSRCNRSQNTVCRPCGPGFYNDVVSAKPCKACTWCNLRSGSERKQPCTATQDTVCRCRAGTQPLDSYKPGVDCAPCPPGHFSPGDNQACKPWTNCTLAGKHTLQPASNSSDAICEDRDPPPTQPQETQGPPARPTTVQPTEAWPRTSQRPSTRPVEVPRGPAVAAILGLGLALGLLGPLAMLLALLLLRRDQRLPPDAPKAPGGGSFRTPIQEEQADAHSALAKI
In words: FACS on HEK293A/rhesus OX40 cells, MFI (panel without title; monkey OX40 by the legend). On the procedure: Briefly, 10^5 HEK293A cells were seeded into each well of the 96-well plates and serially diluted anti-OX40 antibodies were added to the plates. After incubated at 4° C. for 1 hour, plates were washed 3 times with PBST. Then, an APC coupled Goat Anti-Mouse IgG (BioLegen, US, Cat#: 405308) diluted 500× was added to the plates. After incubation at 4° C. for 1 hour, the plates were washed with PBS for 3 times and then cell fluorescence was monitored using a FACS machine (BD).
Example 15 Humanized Anti-OX40 Antibodies Bound to Human or Rhesus OX40 Expressed on HEK293A Cells The humanized anti-OX40 antibodies were also tested for their ability of binding to HEK293A/huOX40 cells or HEK293A/rhOX40 cells, following the FACS analysis protocol as described in Example 5.

Experiment [3] deals with T3, recombinant rhesus OX40-his (Sino Biological, Cat#:90846-C08H) (rhesus monkey, UniProt P43489 29-214 (human entry)).
T3 construct: bought protein; also called monkey OX40-his; rhOX40-his; not shown: His tag
T3 chain: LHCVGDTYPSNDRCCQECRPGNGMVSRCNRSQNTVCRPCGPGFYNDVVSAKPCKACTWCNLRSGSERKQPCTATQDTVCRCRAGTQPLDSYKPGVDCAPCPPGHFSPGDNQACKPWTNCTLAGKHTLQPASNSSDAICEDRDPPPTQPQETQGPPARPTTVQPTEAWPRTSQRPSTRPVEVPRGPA
Put plainly: ELISA on coated rhesus OX40-His, OD450. (An ELISA detects its analyte on a solid surface through an enzyme-linked reagent.)

For experiment [4], the target named is T4, murine OX40-His (Crown, Cat#: E3350-B1707) (mouse, UniProt P47741 20-211).
T4 construct: bought protein; also called mouse OX40-his; muOX40-his; not shown: His tag
T4 sequence: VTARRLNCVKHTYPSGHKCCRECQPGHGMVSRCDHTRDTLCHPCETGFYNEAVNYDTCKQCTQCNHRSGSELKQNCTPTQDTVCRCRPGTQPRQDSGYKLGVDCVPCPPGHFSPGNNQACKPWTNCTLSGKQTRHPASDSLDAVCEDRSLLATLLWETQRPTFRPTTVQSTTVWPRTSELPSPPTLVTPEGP
Put plainly: ELISA on coated mouse OX40-His, OD450.

Experiment [5] addresses T1, recombinant human OX40-his (Sino …). Put plainly: ELISA on coated human OX40-His, OD450.
The target of experiment [6] is T4, murine OX40-His (Crown, Cat#: …). Put plainly: ELISA on coated mouse OX40-His, OD450. The source holds these as a separate data set.
Experiment [7] concerns the target T3, recombinant rhesus OX40-his (Sino …). In words: ELISA on coated rhesus OX40-His, OD450.
Experiment [8] concerns the target T5, human OX40 expressed on HEK293A cells (human, UniProt P43489 29-277).
T5 construct: also called HEK293A/huOX40; HEK293A/human OX40 cells
T5 sequence: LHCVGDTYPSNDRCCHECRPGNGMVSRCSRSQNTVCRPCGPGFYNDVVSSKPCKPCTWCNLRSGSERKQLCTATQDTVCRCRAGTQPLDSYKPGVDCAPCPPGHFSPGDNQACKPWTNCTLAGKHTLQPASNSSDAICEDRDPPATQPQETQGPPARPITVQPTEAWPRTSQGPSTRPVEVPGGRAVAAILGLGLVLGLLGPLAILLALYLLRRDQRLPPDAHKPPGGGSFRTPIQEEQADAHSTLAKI
In words: FACS on HEK293A/huOX40 cells.

For experiment [9], the target named is T2, rhesus OX40 expressed on HEK293A cells. In words: FACS on HEK293A/rhOX40 cells.

B1: 68C8-VH2VL2 (antibody, human IgG1, kappa, V domains shown)
VH: QVQLVQSGAEVKKPGASVKVSCKVSGDTFTSYWITWVRQRPGKGLEWMGDIHPGSGSTNNNEKFKNRVTMTVDTSTDTAYMELSSLRSEDTAVYYCATLRPYYFVYWGQGTLVTVSS
VL: DIQMTQSPSSLSASVGDRVTITCRASQDISNYLNWYQQKPGKTPKLLIYYTSRLLSGVPSRFSGSGSGTDYTLTISSLQPEDFATYYCQQGNTLPLTFGQGTRLEIKR
notes: humanized; also called 68C8-H2L2
In the case of B1, in experiment [1], the Kd worked out at 5.07 nM, the off-rate (koff) turned out to be 0.00105 s⁻¹ and the on-rate constant (kon) came out at 207000 M⁻¹ s⁻¹. The binding result in experiment [2] is on record as “binds”. Also, the binding result in experiment [3] is recorded as “binds”. For the same molecule, the binding result in experiment [4] is listed as “no binding (tested: 10000 ng/ml (log 4))”.

B2: 68C8-VH0VL0 (antibody, human IgG1, kappa, V domains shown)
VH: QVQLVQSGAEVKKPGASVKVSCKVSGDTFTSYWITWVRQAPGKGLEWMGDIHPGSGSTNNNEKFKNRVTMTEDTSTDTAYMELSSLRSEDTAVYYCATLRPYYFVYWGQGTLVTVSS
VL: DIQMTQSPSSLSASVGDRVTITCRASQDISNYLNWYQQKPGKAPKLLIYYTSRLLSGVPSRFSGSGSGTDFTLTISSLQPEDFATYYCQQGNTLPLTFGQGTRLEIKR
notes: humanized; also called 68C8-H0L0
In the case of B2, in experiment [1], the dissociation constant Kd came out at 4.49 nM, the koff is 0.00184 s⁻¹ and the association rate constant (kon) came to 410000 M⁻¹ s⁻¹. Further, in experiment [2], the binding result is on record as “binds”. Moreover, the binding result in experiment [3] is reported as “binds”. The binding result in [4] is “no binding (tested: 10000 ng/ml (log 4))”.

B3: 71H8-VH3VL3 (antibody, human IgG1, kappa, V domains shown)
VH: QVQLVQSGAEVKKPGASVKVSCKVSGYTFTSYWITWVRQRPGQGLEWIGDIYPGSGSTNQNEKFKSRVTLTVDTSTDTAYMELSSLRSEDTAVYYCATLRPYYFVYWGQGTLVTVSS
VL: DIQMTQSPSSLSASVGDRVTITCRASQDISNYLNWYQQKPGKTVKLLIYYTSRLLSGVPSRFSGSGSGTDYTLTISSLQPEDFATYFCQQGNTLPLTFGQGTRLEIKR
notes: humanized; also called 71H8-H3L3
For the molecule B3, in experiment [1], the equilibrium dissociation constant (Kd) stood at 6.36 nM, the off-rate constant (koff) stood at 0.00207 s⁻¹ and the kon amounted to 325000 M⁻¹ s⁻¹. Moreover, in experiment [2], the binding result is on record as “binds”. For the same molecule, the “EC50 (read off the curve)” value in [5] is approximately 3 ng/mL. The binding result in experiment [6] is “no binding (tested: 10000 ng/ml (log 4))”. The “EC50 (read off the curve)” value in experiment [7] is approximately 3 ng/mL.

B4: 71H8-VH2VL2 (antibody, human IgG1, kappa, V domains shown)
VH: QVQLVQSGAEVKKPGASVKVSCKVSGYTFTSYWITWVRQRPGKGLEWMGDIYPGSGSTNQNEKFKSRVTMTVDTSTDTAYMELSSLRSEDTAVYYCATLRPYYFVYWGQGTLVTVSS
VL: DIQMTQSPSSLSASVGDRVTITCRASQDISNYLNWYQQKPGKTPKLLIYYTSRLLSGVPSRFSGSGSGTDYTLTISSLQPEDFATYYCQQGNTLPLTFGQGTRLEIKR
notes: humanized; also called 71H8-H2L2
With B4, the dissociation constant (Kd) in experiment [1] was found to be 4.81 nM. In addition, the koff in experiment [1] came to 0.00172 s⁻¹. Further, the on-rate constant (kon) in experiment [1] is 358000 M⁻¹ s⁻¹. For the same molecule, the results for the binding result in experiment [2] and in experiment [6] were “binds” and “no binding (tested: 10000 ng/ml (log 4))”, respectively. Further, the half-maximal effective concentration (EC50 (read off the curve)) in [5] and in experiment [7] was approximately 3 ng/mL throughout.

B5: 71H8-VH0VL0 (antibody, human IgG1, kappa, V domains shown)
VH: QVQLVQSGAEVKKPGASVKVSCKVSGDTFTSYWITWVRQAPGKGLEWMGDIYPGSGSTNQNEKFKSRVTMTEDTSTDTAYMELSSLRSEDTAVYYCATLRPYYFVYWGQGTLVTVSS
VL: DIQMTQSPSSLSASVGDRVTITCRASQDISNYLNWYQQKPGKAPKLLIYYTSRLLSGVPSRFSGSGSGTDFTLTISSLQPEDFATYYCQQGNTLPLTFGQGTRLEIKR
notes: humanized; also called 71H8-H0L0
For B5, in experiment [1], the dissociation constant (Kd) turned out to be 9.21 nM, the koff came to 0.00274 s⁻¹ and the kon was 297000 M⁻¹ s⁻¹. The binding result in [2] was “binds”. Further, the “EC50 (read off the curve)” value in experiment [5] was approximately 3 ng/mL. Further, the binding result in [6] is “no binding (tested: 10000 ng/ml (log 4))”. In addition, the 50% effective concentration (EC50 (read off the curve)) in experiment [7] was approximately 3 ng/mL.

B6: 68C8-VH3VL2 (antibody, human IgG1, kappa, V domains shown)
VH: QVQLVQSGAEVKKPGASVKVSCKVSGDTFTSYWITWVRQRPGQGLEWIGDIHPGSGSTNNNEKFKNRVTLTVDTSTDTAYMELSSLRSEDTAVYYCATLRPYYFVYWGQGTLVTVSS
VL: DIQMTQSPSSLSASVGDRVTITCRASQDISNYLNWYQQKPGKTPKLLIYYTSRLLSGVPSRFSGSGSGTDYTLTISSLQPEDFATYYCQQGNTLPLTFGQGTRLEIKR
notes: humanized; also called 68C8-H3L2
Regarding B6, in [1], the dissociation constant Kd is 9.55 nM. Also, the dissociation rate constant (koff) in [1] is 0.00157 s⁻¹. The kon in experiment [1] was 165000 M⁻¹ s⁻¹. Besides, the values for the binding result in experiment [2], in experiment [3] and in [4] were “binds”, “binds” and “no binding (tested: 10000 ng/ml (log 4))”, respectively.

B7: 68C8-VH3VL3 (antibody, human IgG1, kappa, V domains shown)
VH: QVQLVQSGAEVKKPGASVKVSCKVSGDTFTSYWITWVRQRPGQGLEWIGDIHPGSGSTNNNEKFKNRVTLTVDTSTDTAYMELSSLRSEDTAVYYCATLRPYYFVYWGQGTLVTVSS
VL: DIQMTQSPSSLSASVGDRVTITCRASQDISNYLNWYQQKPGKTVKLLIYYTSRLLSGVPSRFSGSGSGTDYTLTISSLQPEDFATYFCQQGNTLPLTFGQGTRLEIKR
notes: humanized; also called 68C8-H3L3
With B7, in experiment [1], the Kd was 4.04 nM, the dissociation rate constant (koff) stood at 0.000821 s⁻¹ and the kon amounted to 203000 M⁻¹ s⁻¹. Also, in experiment [2], the binding result is reported as “binds”. The binding result in experiment [3] is “binds”. Also, in experiment [4], the binding result is on record as “no binding (tested: 10000 ng/ml (log 4))”.

B8: chimeric antibody 6A12 (antibody, human IgG1, kappa, V domains shown)
VH: QVQLQQSGPELVKPGASVKISCKASGYAFSSSWMNWVKQRPGKGLEWIGRIYPGDGITNYNGNFKGKATLTADKSSSTAYMQLSGLTSADSAVYFCAREFIPLGWGTGTTVTVSS
VL: DIVMTQTPFSNPVTLGTSASISCRSSKSLLHSNGITYLYWYLQKPGQSPQLLIYQMSNLASGVPDRFSSSGSGTDFTLRISRVEAEDVGVYYCAQNLELPWTFGGGTKLEIKR
notes: mouse variable regions with human IgG1/kappa constant regions
For B8, the figures for the EC50 in experiment [8] and in experiment [9] were 177 ng/mL and 883 ng/mL, respectively.
